Laboratory results reported in patent publication US20110086364A1 (TEKNOLOGIAN TUTKIMUSKESKUS VTT, published 2011).

Target: T1, immune complex of anti-THC T3 Fab and THC (tetrahydrocannabinol)
T1 construct: the target is the Fab-hapten complex; The Fab was labeled with europium (LANCE Eu-W1024 ITC chelate) for TR-FRET and biotinylated for phage selection; also called T3+THC complex; T3+THC immune complex
Experiment: homogeneous TR-FRET in saliva: Eu-labeled T3 Fab, Alexa Fluor 647-labeled Fab 104, spiked THC
Method: 40 μl saliva samples spiked with 0, 3.75, 7.5, 15, 30, 60 and 120 ng/ml of the following drugs: D9-THC, 11-OH-D9-THC, 11-nor-D9-THC-COOH, heroin and amphetamine were added to the wells. After short mixing, the time resolved fluorescence resonance energy transfer (TR-FRET) was measured by Victor V fluorometer (Perkin Elmer Wallac).

T1 sequence (VH, as listed by the source, chain 1 of 2): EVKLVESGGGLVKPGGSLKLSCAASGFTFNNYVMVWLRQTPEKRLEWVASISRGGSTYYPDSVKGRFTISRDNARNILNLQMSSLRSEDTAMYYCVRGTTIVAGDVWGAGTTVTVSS
T1 sequence (VL, as listed by the source, chain 2 of 2): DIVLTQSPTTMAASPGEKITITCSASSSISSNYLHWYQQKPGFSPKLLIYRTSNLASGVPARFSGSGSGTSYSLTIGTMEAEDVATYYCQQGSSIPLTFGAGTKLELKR

B1: anti-T3+THC immune complex Fab 104 (Fab, V domains shown)
VH: QVQLVQSGTEVKKPGATVKISCKFSGDNFIDYYMHWVKQAQGKGLEWLGLVDLGDGQTIYAEKFHGRGTITADSSRDTAYMELSSLRSEDTAVYYCAAAKAYRQGVMDVWGQGTLVTVSS
VL: NFMLTQPHSVSESPGKTVTISCTGSSGSIASNYVQWYQQRPGSAPTTVIYEDNQRPSGVPDRFSGSIDSSSNSASLTISGLKTEDEADYYCQSYDSSNQVFGGGTKLTVLG
notes: Labeled with Alexa Fluor 647 for the TR-FRET assay
binding result: binds
